{"source": "paper PMC2726290", "about": "(2008)", "key": {"[1]": {"biological_target": "T1, hPHD-HD1 complex (hPygo1 PHD 333-402 with hBCL9 HD1) (human, UniProt Q9Y3Y4 333-402; O00512 177-205)", "T1 chain 1": "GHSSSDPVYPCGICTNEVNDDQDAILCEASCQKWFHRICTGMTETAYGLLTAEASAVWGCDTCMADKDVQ", "T1 chain 2": "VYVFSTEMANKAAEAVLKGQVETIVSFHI", "assay": "ITC"}, "hPygo1 PHD finger V350E": {"biological_target": "T2, hPygo1 PHD finger V350E (human, UniProt Q9Y3Y4 333-402, V350E)", "T2 sequence": "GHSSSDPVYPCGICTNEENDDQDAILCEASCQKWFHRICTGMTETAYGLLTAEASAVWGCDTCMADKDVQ", "assay": "ITC"}, "[2]": {"biological_target": "hPygo1 PHD finger mutated at N351 (human, UniProt Q9Y3Y4 333-402)", "assay": "ITC; N351A"}, "[3]": {"biological_target": "hPygo1 PHD finger mutated at Q354 (human, UniProt Q9Y3Y4 333-402)", "assay": "ITC; Q354A"}}, "note": "No end group written: not given here."}
{"binder": "ARTK(Me)QTARKSTGGKA", "note": "[H3K4me1 15-mer histone H3 tail peptide]", "values": [{"measurement": "Kd", "setting": "[1]", "result": 2.2, "unit": "µM"}]}
{"binder": "GRTKQTARK (dimethyl-lysine at K4)", "note": "[H3K4me2 9-mer whose A1 was substituted with a glycine]", "values": [{"measurement": "Kd", "setting": "[1]", "result": 99.8, "unit": "µM"}]}
{"binder": "ARTKQTARKSTGGKA (trimethyl-lysine at K4)", "note": "[H3K4me3 15-mer histone H3 tail peptide]", "values": [{"measurement": "Kd", "setting": "hPygo1 PHD finger V350E", "result": 98, "unit": "µM"}, {"measurement": "Kd", "setting": "[2]", "result": 7.1, "unit": "µM"}, {"measurement": "Kd", "setting": "[3]", "result": 13.8, "unit": "µM"}]}
